Source: the supplement of paper PMC10126150
± gives the standard deviation of the averaged measurements.

Test system: ATP
Assay: switch fluorescence ratio, 500 uM ATP over buffer (Cy3 cluster intensity, sum of 5 cycles each) (fold (ratio)); higher = stronger signal-on switching upon ATP binding; sequences stand for … in TCGTCGGCAGCGTCAGATGTGTATAAGAGACAGTTTTTTTTTTTTTTTTTTTTTTTTT…TC
Conditions: aptamer strand: ATP DNA aptamer (quencher-CACCTGGGGGAGTATTGCGGAGGAAGG + anchor), 100 nM annealed; ATP concentration: 500 uM
In short: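 Imaging in selection buffer was followed by imaging after 15 min with 500 uM ATP at 22 °C, for Cy3-labelled switching-strand clusters annealed to 100 nM quencher-labelled ATP aptamer on a modified Illumina MiSeq flow-cell. Five of these buffer/ATP cycles ran, separated by NaOH stripping and re-annealing. The fluorescence ratio per cluster is summed target-cycle over summed buffer-cycle Cy3 intensity, averaged per switch-domain sequence; clusters outside 100-1000 RFU were removed.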
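Further: ATP exposure 15 min at 22 °C before imaging.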

TGATTTTTAC
switch fluorescence ratio: 1.08 ± 0.092

TGATTTTTTG
switch fluorescence ratio: 0.969 ± 0.03

TGCAAAAGGC
switch fluorescence ratio: 0.972 ± 0.013

TGCAAAATTT
switch fluorescence ratio: 0.995 ± 0.018

TGCAAACCTT
switch fluorescence ratio: 2.39 ± 0.047

TGCAACCTCA
switch fluorescence ratio: 1.09 ± 0.043

TGCAAGCGGG
switch fluorescence ratio: 0.985 ± 0.027

TGCAAGGGGG
switch fluorescence ratio: 1.06 ± 0.077

TGCAAGGGGT
switch fluorescence ratio: 1.14 ± 0.16

TGCAAGGTCG
switch fluorescence ratio: 1.03 ± 0.031

TGCAAGTACA
switch fluorescence ratio: 1.41 ± 0.063

TGCAAGTGGT
switch fluorescence ratio: 1.54 ± 0.75

TGCAAGTTTG
switch fluorescence ratio: 1 ± 0.017

TGCAATATTT
switch fluorescence ratio: 1.31 ± 0.02

TGCAATGCAC
switch fluorescence ratio: 1.558 ± 0.0038

TGCAATTAAC
switch fluorescence ratio: 3.51 ± 0.17

TGCAATTGTA
switch fluorescence ratio: 1.0195 ± 0.00099

TGCACCAGG
switch fluorescence ratio: 3.29 ± 0.44

TGCAGCTAGC
switch fluorescence ratio: 1.05 ± 0.021

TGCAGGGGTA
switch fluorescence ratio: 1.12 ± 0.2

TGCAGGGTTG
switch fluorescence ratio: 0.99591 ± 0.00085

TGCATACAGT
switch fluorescence ratio: 1.03 ± 0.046

TGCATATGGG
switch fluorescence ratio: 0.978 ± 0.0058

TGCATGGCAA
switch fluorescence ratio: 1.03 ± 0.013

TGCATGTTTG
switch fluorescence ratio: 0.975 ± 0.056

TGCATTATAC
switch fluorescence ratio: 3.59 ± 0.19

TGCATTCAGT
switch fluorescence ratio: 0.99 ± 0.048

TGCATTCTGA
switch fluorescence ratio: 1.02 ± 0.025

TGCATTGGTG
switch fluorescence ratio: 1.018 ± 0.0019

TGCATTGTTT
switch fluorescence ratio: 0.999 ± 0.015

TGCATTTTGT
switch fluorescence ratio: 0.989 ± 0.018

TGCCACAGCA
switch fluorescence ratio: 1.02 ± 0.025

TGCCATCCTA
switch fluorescence ratio: 0.9913 ± 0.005

TGCCCATGAT
switch fluorescence ratio: 0.963 ± 0.018

TGCCCCGCCT
switch fluorescence ratio: 0.996 ± 0.044

TGCCCCTTTT
switch fluorescence ratio: 0.98 ± 0.013

TGCCCGGGGT
switch fluorescence ratio: 1.05 ± 0.036

TGCCGAAAGC
switch fluorescence ratio: 1.018 ± 0.0087

TGCCGAAAGT
switch fluorescence ratio: 0.962 ± 0.033

TGCCGAGGCC
switch fluorescence ratio: 0.977 ± 0.0077

TGCCGCCTTG
switch fluorescence ratio: 0.979 ± 0.024

TGCCGCTTCT
switch fluorescence ratio: 1.02 ± 0.058

TGCCGGACGA
switch fluorescence ratio: 1.065 ± 0.0037

TGCCGGCGGG
switch fluorescence ratio: 0.9629 ± 0.0043

TGCCGGCTGG
switch fluorescence ratio: 1.02 ± 0.053

TGCCGGGTCT
switch fluorescence ratio: 0.988 ± 0.04

TGCCGTCGGC
switch fluorescence ratio: 0.949 ± 0.06

TGCCTGCATT
switch fluorescence ratio: 1.02 ± 0.011

TGCCTTGCCA
switch fluorescence ratio: 1 ± 0.012

TGCCTTTCGG
switch fluorescence ratio: 0.9909 ± 0.0062

TGCGATGACT
switch fluorescence ratio: 1.45 ± 0.65

TGCGATTCTG
switch fluorescence ratio: 0.978 ± 0.032

TGCGCAGCGG
switch fluorescence ratio: 1.005 ± 0.0094

TGCGCTTCTA
switch fluorescence ratio: 0.98114 ± 0.00055

TGCGGAAGGC
switch fluorescence ratio: 1.11 ± 0.013

TGCGGAGGTT
switch fluorescence ratio: 1.019 ± 0.0037

TGCGGCGAGG
switch fluorescence ratio: 1.016 ± 2e-05

TGCGGGGCAG
switch fluorescence ratio: 1.04 ± 0.072

TGCGGGGGCG
switch fluorescence ratio: 0.992 ± 0.038

TGCGGGGGTG
switch fluorescence ratio: 1.05 ± 0.018

TGCGGGGTGG
switch fluorescence ratio: 1.12 ± 0.072

TGCGGGTGGT
switch fluorescence ratio: 1.035 ± 0.0014

TGCGGTAGAA
switch fluorescence ratio: 1.01 ± 0.024

TGCGTATGAA
switch fluorescence ratio: 0.9796 ± 0.0097

TGCGTCCAAG
switch fluorescence ratio: 1.02 ± 0.029

TGCGTCGGTG
switch fluorescence ratio: 1.03 ± 0.049

TGCGTCTGAT
switch fluorescence ratio: 1.001 ± 0.0082

TGCGTGAAAT
switch fluorescence ratio: 0.9765 ± 0.0044

TGCGTGGGGA
switch fluorescence ratio: 1.04 ± 0.0057

TGCTAACGTG
switch fluorescence ratio: 0.977 ± 0.0057

TGCTAGGAG
switch fluorescence ratio: 0.995 ± 0.043

TGCTAGTACC
switch fluorescence ratio: 1.054 ± 0.0036

TGCTATCATT
switch fluorescence ratio: 1.08 ± 0.12

TGCTCATAGC
switch fluorescence ratio: 1.01 ± 0.021

TGCTCCAGTC
switch fluorescence ratio: 1.094 ± 0.0067

TGCTCCGGAG
switch fluorescence ratio: 1.018 ± 0.006

TGCTCCTGTA
switch fluorescence ratio: 1 ± 0.024

TGCTCGGCGT
switch fluorescence ratio: 0.99846 ± 0.00041

TGCTCTAGGA
switch fluorescence ratio: 1.001 ± 0.0042

TGCTGAAGAT
switch fluorescence ratio: 1.003 ± 0.0067

TGCTGAGTAG
switch fluorescence ratio: 0.9785 ± 0.0036

TGCTGCAGTT
switch fluorescence ratio: 0.982 ± 0.055

TGCTGGAGGA
switch fluorescence ratio: 1.038 ± 0.006

TGCTGGATTT
switch fluorescence ratio: 0.991 ± 0.016

TGCTGGCATA
switch fluorescence ratio: 1.18 ± 0.29

TGCTGGCCTG
switch fluorescence ratio: 1.01 ± 0.019

TGCTGGGGAT
switch fluorescence ratio: 1.009 ± 0.0015

TGCTGGTCTC
switch fluorescence ratio: 1 ± 0.015

TGCTGGTCTG
switch fluorescence ratio: 1.02 ± 0.047

TGCTGTATTC
switch fluorescence ratio: 0.967 ± 0.041

TGCTGTTCTC
switch fluorescence ratio: 0.995 ± 0.018

TGCTTAGTC
switch fluorescence ratio: 1.01 ± 0.022

TGCTTCATAA
switch fluorescence ratio: 1.01 ± 0.048

TGCTTGAGTC
switch fluorescence ratio: 1.009 ± 0.0027

TGCTTGGGGC
switch fluorescence ratio: 0.99 ± 0.059

TGCTTGTCTC
switch fluorescence ratio: 1 ± 0.013

TGCTTTAGCG
switch fluorescence ratio: 1.0155 ± 0.00011

TGCTTTCATG
switch fluorescence ratio: 1.01 ± 0.027

TGCTTTCTTC
switch fluorescence ratio: 1.15 ± 0.31

TGCTTTGTGT
switch fluorescence ratio: 0.978 ± 0.025

TGCTTTTAGG
switch fluorescence ratio: 0.996 ± 0.017

TGCTTTTCTT
switch fluorescence ratio: 0.996 ± 0.018

TGCTTTTTA
switch fluorescence ratio: 0.971 ± 0.051

TGGAAAAGCT
switch fluorescence ratio: 1.06 ± 0.034

TGGAAAAGGT
switch fluorescence ratio: 1.0134 ± 0.00089

TGGAAAATTC
switch fluorescence ratio: 1.019 ± 0.0078

TGGAAAGTAC
switch fluorescence ratio: 1.28 ± 0.095

TGGAAGATGG
switch fluorescence ratio: 1.01 ± 0.03

TGGAAGGGCT
switch fluorescence ratio: 1.052 ± 0.0058

TGGAAGGTTA
switch fluorescence ratio: 1.01 ± 0.025

TGGAAGTCGG
switch fluorescence ratio: 0.984 ± 0.022

TGGACACTGC
switch fluorescence ratio: 1.02 ± 0.011

TGGACAGACA
switch fluorescence ratio: 1.111 ± 0.0046

TGGACGAATA
switch fluorescence ratio: 1.39 ± 0.29

TGGACGAGAG
switch fluorescence ratio: 1.01 ± 0.019

TGGACGGAAG
switch fluorescence ratio: 0.984 ± 0.018

TGGAGAAGTA
switch fluorescence ratio: 1.09 ± 0.2

TGGAGCCTTT
switch fluorescence ratio: 1.1 ± 0.18

TGGAGCGGGA
switch fluorescence ratio: 1 ± 0.022

TGGAGGTCGC
switch fluorescence ratio: 1.01 ± 0.049

TGGAGGTCTA
switch fluorescence ratio: 1 ± 0.018

TGGAGGTTAG
switch fluorescence ratio: 1.02 ± 0.034

TGGAGGTTAT
switch fluorescence ratio: 0.9935 ± 0.0081

TGGAGTAAAA
switch fluorescence ratio: 1.03 ± 0.053

TGGAGTATTT
switch fluorescence ratio: 0.9525 ± 0.005

TGGAGTGGGT
switch fluorescence ratio: 1.01 ± 0.011

TGGAGTTAGG
switch fluorescence ratio: 0.995 ± 0.013

TGGAGTTGGT
switch fluorescence ratio: 0.987 ± 0.047

TGGATATTTT
switch fluorescence ratio: 0.993 ± 0.044

TGGATCAATT
switch fluorescence ratio: 1.01 ± 0.011

TGGATCAGTG
switch fluorescence ratio: 0.993 ± 0.046

TGGATGAAGA
switch fluorescence ratio: 1.025 ± 0.0078

TGGATGGCGT
switch fluorescence ratio: 1.101 ± 0.0046

TGGATGTCAT
switch fluorescence ratio: 1.07 ± 0.059

TGGATTAAGG
switch fluorescence ratio: 1.03 ± 0.033

TGGATTGGGC
switch fluorescence ratio: 0.973 ± 0.038

TGGATTGTTT
switch fluorescence ratio: 0.994 ± 0.03

TGGCAAAGTT
switch fluorescence ratio: 0.985 ± 0.013

TGGCAATGAA
switch fluorescence ratio: 1.28 ± 0.35

TGGCACAGAG
switch fluorescence ratio: 1 ± 0.022

TGGCAGCAGT
switch fluorescence ratio: 1.09 ± 0.019

TGGCAGTTTT
switch fluorescence ratio: 1.02 ± 0.013

TGGCATCTGT
switch fluorescence ratio: 0.972 ± 0.03

TGGCATTTCC
switch fluorescence ratio: 1.18 ± 0.11

TGGCCCTTGG
switch fluorescence ratio: 1 ± 0.054

TGGCCGATGG
switch fluorescence ratio: 0.986 ± 0.052

TGGCCGGGAT
switch fluorescence ratio: 0.996 ± 0.021

TGGCCGTGGC
switch fluorescence ratio: 1.03 ± 0.05

TGGCCTATCC
switch fluorescence ratio: 1.17 ± 0.04

TGGCGAATTA
switch fluorescence ratio: 0.978 ± 0.026

TGGCGCACGG
switch fluorescence ratio: 0.953 ± 0.017

TGGCGCATAA
switch fluorescence ratio: 1.25 ± 0.059

TGGCGCCATT
switch fluorescence ratio: 1 ± 0.072

TGGCGCCGGT
switch fluorescence ratio: 0.995 ± 0.01

TGGCGGAACA
switch fluorescence ratio: 1.02 ± 0.017

TGGCGGATAT
switch fluorescence ratio: 1.06 ± 0.1

TGGCGGTTAG
switch fluorescence ratio: 1.01 ± 0.019

TGGCGTCTGA
switch fluorescence ratio: 1 ± 0.013

TGGCTAGGAC
switch fluorescence ratio: 1.01 ± 0.04

TGGCTATTGT
switch fluorescence ratio: 0.9824 ± 0.0044

TGGCTCTGAG
switch fluorescence ratio: 0.9973 ± 0.0028

TGGCTGACTT
switch fluorescence ratio: 1.01 ± 0.016

TGGCTGTGGG
switch fluorescence ratio: 0.991 ± 0.016

TGGCTTAGGG
switch fluorescence ratio: 0.98975 ± 0.00065

TGGCTTCGGC
switch fluorescence ratio: 0.9979 ± 0.0053

TGGCTTGAGT
switch fluorescence ratio: 1.12 ± 0.19

TGGCTTGCG
switch fluorescence ratio: 1.01 ± 0.04

TGGGAAAAAT
switch fluorescence ratio: 0.994 ± 0.04

TGGGAAAGTC
switch fluorescence ratio: 0.993 ± 0.026

TGGGAAATAT
switch fluorescence ratio: 0.9726 ± 0.0072

TGGGAAATT
switch fluorescence ratio: 1.19 ± 0.19

TGGGAACGAT
switch fluorescence ratio: 1.011 ± 0.0034

TGGGAAGAGG
switch fluorescence ratio: 1.01 ± 0.026

TGGGAAGGCG
switch fluorescence ratio: 0.983 ± 0.012

TGGGAAGGTG
switch fluorescence ratio: 1.7 ± 0.33

TGGGAAGTCA
switch fluorescence ratio: 0.991 ± 0.012

TGGGAAGTGT
switch fluorescence ratio: 0.9621 ± 0.0013

TGGGAAGTTC
switch fluorescence ratio: 1.04 ± 0.046

TGGGAAGTTT
switch fluorescence ratio: 0.978 ± 0.013

TGGGAATTGG
switch fluorescence ratio: 0.981 ± 0.012

TGGGACAGGC
switch fluorescence ratio: 0.965 ± 0.089

TGGGACCGTC
switch fluorescence ratio: 1.052 ± 0.0042

TGGGACGCCG
switch fluorescence ratio: 1.01 ± 0.015

TGGGACGTTA
switch fluorescence ratio: 1.04 ± 0.036

TGGGACGTTG
switch fluorescence ratio: 0.995 ± 0.014

TGGGACTAGT
switch fluorescence ratio: 1.02 ± 0.059

TGGGAGAAGG
switch fluorescence ratio: 1.02 ± 0.057

TGGGAGAGCG
switch fluorescence ratio: 0.973 ± 0.016

TGGGAGGTAC
switch fluorescence ratio: 1.24 ± 0.3

TGGGAGGTTA
switch fluorescence ratio: 0.965 ± 0.025

TGGGAGGTTT
switch fluorescence ratio: 1.05 ± 0.18

TGGGAGTTAG
switch fluorescence ratio: 0.943 ± 0.03

TGGGATAATG
switch fluorescence ratio: 1.012 ± 0.0042

TGGGATACGA
switch fluorescence ratio: 4.47 ± 0.82

TGGGATAGAT
switch fluorescence ratio: 0.996 ± 0.027

TGGGATAGGC
switch fluorescence ratio: 0.991 ± 0.032

TGGGATCGCC
switch fluorescence ratio: 1.02 ± 0.028

TGGGATGATG
switch fluorescence ratio: 1.008 ± 0.0095

TGGGATGCAA
switch fluorescence ratio: 1.04 ± 0.035

TGGGATGCAT
switch fluorescence ratio: 0.991 ± 0.034
